Experimental data from PMC9365700, “Architecture and self-assembly of the jumbo bacteriophage nuclear shell” (Nature, 2022).
Several values for one entry are separate records, joined by “and”; a condition that tells them apart may be missing. Identical values can stand only once.

B1: Goslar chimallin (gp189), full length, recombinant (natural protein, bacteriophage Goslar, UniProt A0A482GDX1 1-631, looked up)
chain: MGLDVRNNGNDNVEIRAAETRTAQRADEALETAADFAGQPKVTHTMRTINRTLSRRISRNTGSEQVLNLRRLMEKYLEDTRFKDDFIFVAVDPNQYSVPYPTLVVMSGAKVGDHNHFFGYVLPLVAGLAPLPRREEQGPHGNILVPRTWVDNLNGTFINEVMAAMYAAIGGKSNGTARIAGLAVVTNEITAESAHLATTLLSAADNAIQTAIEIRLGDKLGLPQFNLGMMASDQPISSVQYNTSGMQDSDIVGNPVRSDITVTISNRIRQAMSDYDSQQRLVATTGYIDLTYSPQNPTFNQGPVLVNGYPVPPTVQYQPRYVMTSAYPLELDAFTPNTFVLGLIGTIATLNSGMAWAQSLISNAARGIGPHNPGALAMVLDPEVTAPLDLSTQTNEQIYKFLQQVLYPSLLISIDVPEEGEYSWLLRMIPAAEKIYTGKVEGEVREISEGYKALYRAFDDVTLGCFSKKYQYGLPLVYATGNRIPLGHYNHQDGHRHDIRDMDDLYMMNITNPDTVEAWEDSFDRTDMTMSQRVVARHEIIDRVLSGSWEQTGWAMRYDFDPLALQALIEAAADAGFTIRPENIQHLAGTAVRGNMAARARGLGNISGNIYARSDRPNVGVNNMGGAFNLF
notes: Chimallin (gp189) of E. coli jumbo bacteriophage Goslar, 631 amino acids, NCBI YP_009820873.1; Cloned in UC Berkeley Macrolab vector 2-BT (Addgene #29666) with a TEV-cleavable His6 tag; tag removed before SEC; not shown: His6, N-terminal, cleaved
B2: 201phi2-1 chimallin (gp105), full length, recombinant (natural protein, bacteriophage 201phi2-1, UniProt B3FIW8 1-631, looked up)
chain: MIRDTATNTTQTQAAPQQAPAQQFTQAPQEKPMQSTQSQPTPSYAGTGGINSQFTRSGNVQGGDARASEALTVFTRLKEQAVAQQDLADDFSILRFDRDQHQVGWSSLVIAKQISLNGQPVIAVRPLILPNNSIELPKRKTNIVNGMQTDVIESDIDVGTVFSAQYFNRLSTYVQNTLGKPGAKVVLAGPFPIPADLVLKDSELQLRNLLIKSVNACDDILALHSGERPFTIAGLKGQQGETLAAKVDIRTQPLHDTVGNPIRADIVVTTQRVRRNGQQENEFYETDVKLNQVAMFTNLERTPQAQAQTLFPNQQQVATPAPWVASVVITDVRNADGIQANTPEMYWFALSNAFRSTHGHAWARPFLPMTGVAKDMKDIGALGWMSALRNRIDTKAANFDDAQFGQLMLSQVQPNPVFQIDLNRMGETAQMDSLQLDAAGGPNAQKAAATIIRQINNLGGGGFERFFDHTTQPILERTGQVIDLGNWFDGDEKRDRRDLDNLAALNAAEGNENEFWGFYGAQLNPNLHPDLRNRQSRNYDRQYLGSTVTYTGKAERCTYNAKFIEALDRYLAEAGLQITMDNTSVLNSGQRFMGNSVIGNNMVSGQAQVHSAYAGTQGFNTQYQTGPSSFY
notes: Cloned in UC Berkeley Macrolab vector 2-BT (Addgene #29666) with a TEV-cleavable His6 tag; tag removed before SEC; also called ChmA; FL; not shown: His6, N-terminal, cleaved

Biological target: the molecule itself
Test: cryo-EM structure; single-particle analysis of the defined assemblies from SEC with localized reconstruction (O, C4, C1); 201phi2-1 about 4 µM monomer, Goslar about 33 µM monomer

| Protein | stoichiometry N |
| --- | --- |
| B1 | 24 protomers |
| B2 | 24 protomers and 40 protomers |
